Test results reported in PMC3874162 (Nucleic Acids Research, 2013).
Residue numbers refer to the chain shown, from its start.

Assays:
Cdc13-MOB-DBD [1] = target: T1, Cdc13-MOB-DBD (Saccharomyces cerevisiae, UniProt P32797 344-694); test: filter binding
T1 sequence: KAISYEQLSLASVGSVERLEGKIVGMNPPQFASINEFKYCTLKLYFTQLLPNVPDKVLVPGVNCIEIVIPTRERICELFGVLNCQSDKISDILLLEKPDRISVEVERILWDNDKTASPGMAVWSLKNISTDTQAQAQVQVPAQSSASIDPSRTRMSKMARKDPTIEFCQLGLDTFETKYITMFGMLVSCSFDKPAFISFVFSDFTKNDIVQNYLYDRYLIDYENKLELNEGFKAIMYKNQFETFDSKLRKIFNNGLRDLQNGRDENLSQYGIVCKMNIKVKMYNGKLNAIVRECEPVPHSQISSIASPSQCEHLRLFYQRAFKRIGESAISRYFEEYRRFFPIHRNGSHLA

Cdc13-K622A = target: T2, Cdc13-K622A (Saccharomyces cerevisiae, UniProt P32797 1-924, K622A); test: EMSA
T2 sequence: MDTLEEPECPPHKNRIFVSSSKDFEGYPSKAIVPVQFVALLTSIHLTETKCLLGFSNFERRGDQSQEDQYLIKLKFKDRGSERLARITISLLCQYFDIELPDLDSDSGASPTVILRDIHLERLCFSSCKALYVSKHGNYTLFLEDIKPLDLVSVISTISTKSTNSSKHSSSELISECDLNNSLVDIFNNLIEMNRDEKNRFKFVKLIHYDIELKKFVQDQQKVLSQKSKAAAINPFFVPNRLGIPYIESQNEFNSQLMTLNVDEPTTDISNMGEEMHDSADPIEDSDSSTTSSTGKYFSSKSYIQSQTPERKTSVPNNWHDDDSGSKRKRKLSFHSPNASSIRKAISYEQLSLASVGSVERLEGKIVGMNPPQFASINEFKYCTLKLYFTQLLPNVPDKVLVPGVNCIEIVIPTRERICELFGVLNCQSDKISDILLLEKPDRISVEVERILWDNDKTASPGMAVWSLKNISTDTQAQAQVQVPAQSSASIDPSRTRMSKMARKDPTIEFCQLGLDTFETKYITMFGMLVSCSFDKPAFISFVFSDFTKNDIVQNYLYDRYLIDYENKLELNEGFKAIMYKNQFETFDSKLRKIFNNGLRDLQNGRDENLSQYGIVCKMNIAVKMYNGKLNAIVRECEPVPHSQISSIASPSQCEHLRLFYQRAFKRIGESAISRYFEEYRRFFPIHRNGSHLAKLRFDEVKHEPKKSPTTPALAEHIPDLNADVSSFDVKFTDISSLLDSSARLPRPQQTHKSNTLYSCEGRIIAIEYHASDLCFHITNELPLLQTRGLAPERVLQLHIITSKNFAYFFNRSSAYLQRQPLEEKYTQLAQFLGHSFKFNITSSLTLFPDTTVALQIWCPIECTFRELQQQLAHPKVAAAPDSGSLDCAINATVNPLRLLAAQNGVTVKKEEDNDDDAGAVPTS

Cdc13-MOB-DBD [2] = target: T1, Cdc13-MOB-DBD; test: EMSA
Cdc13-L91R = target: T3, Cdc13-L91R (Saccharomyces cerevisiae, UniProt P32797 1-924, L91R); test: EMSA
T3 sequence: T2 sequence with L91R, A622K

Binder GTGTGGGTGTG (ssDNA) [Tel11] has a Kd (Cdc13-MOB-DBD [1]) of 180 ± 30 pM, a Kd (Cdc13-K622A) of 50 ± 3 pM and a Kd (Cdc13-MOB-DBD [2]) of 2.3 ± 0.2 pM. The Kd (Cdc13-L91R) was 5 ± 0.6 pM.
